Earlier results as cited in paper PMC3113683 (Biochemistry, 2009).

B1: LYP-W620: genetic variant of LYP carrying Trp620 instead of Arg620 in the C-terminal domain (protein, UniProt Q9Y2R2 1-807, looked up, variant R620W)
Tyrosine-protein phosphatase …: MDQREILQKFLDEAQSKKITKEEFANEFLKLKRQSTKYKADKTYPTTVAEKPKNIKKNRYKDILPYDYSRVELSLITSDEDSSYINANFIKGVYGPKAYIATQGPLSTTLLDFWRMIWEYSVLIIVMACMEYEMGKKKCERYWAEPGEMQLEFGPFSVSCEAEKRKSDYIIRTLKVKFNSETRTIYQFHYKNWPDHDVPSSIDPILELIWDVRCYQEDDSVPICIHCSAGCGRTGVICAIDYTWMLLKDGIIPENFSVFSLIREMRTQRPSLVQTQEQYELVYNAVLELFKRQMDVIRDKHSGTESQAKHCIPEKNHTLQADSYSPNLPKSTTKAAKMMNQQRTKMEIKESSSFDFRTSEISAKEELVLHPAKSSTSFDFLELNYSFDKNADTTMKWQTKAFPIVGEPLQKHQSLDLGSLLFEGCSNSKPVNAAGRYFNSKVPITRTKSTPFELIQQRETKEVDSKENFSYLESQPHDSCFVEMQAQKVMHVSSAELNYSLPYDSKHQIRNASNVKHHDSSALGVYSYIPLVENPYFSSWPPSGTSSKMSLDLPEKQDGTVFPSSLLPTSSTSLFSYYNSHDSLSLNSPTNISSLLNQESAVLATAPRIDDEIPPPLPVWTPESFIVVEEAGEFSPNVPKSLSSAVKVKIGTSLEWGGTSEPKKFDDSVILRPSKSVKLRSPKSELHQDRSSPPPPLPERTLESFFLADEDCMQAQSIETYSTSYPDTMENSTSSKQTLKTPGKSFTRSKSLKILRNMKKSICNSCPPNKPAESVQSNNSSSFLNFGFANRFSKPKGPRNPPPTWNI
B2: PEP: mouse homologue of LYP called PEST-enriched phosphatase (protein, UniProt P29352 1-802, looked up)
Tyrosine-protein phosphatase …: MDQREILQQLLKEAQKKKLNSEEFASEFLKLKRQSTKYKADKIYPTTVAQRPKNIKKNRYKDILPYDHSLVELSLLTSDEDSSYINASFIKGVYGPKAYIATQGPLSTTLLDFWRMIWEYRILVIVMACMEFEMGKKKCERYWAEPGETQLQFGPFSISCEAEKKKSDYKIRTLKAKFNNETRIIYQFHYKNWPDHDVPSSIDPILQLIWDMRCYQEDDCVPICIHCSAGCGRTGVICAVDYTWMLLKDGIIPKNFSVFNLIQEMRTQRPSLVQTQEQYELVYSAVLELFKRHMDVISDNHLGREIQAQCSIPEQSLTVEADSCPLDLPKNAMRDVKTTNQHSKQGAEAESTGGSSLGLRTSTMNAEEELVLHSAKSSPSFNCLELNCGCNNKAVITRNGQARASPVVGEPLQKYQSLDFGSMLFGSCPSALPINTADRYHNSKGPVKRTKSTPFELIQQRKTNDLAVGDGFSCLESQLHEHYSLRELQVQRVAHVSSEELNYSLPGACDASCVPRHSPGALRVHLYTSLAEDPYFSSSPPNSADSKMSFDLPEKQDGATSPGALLPASSTTSFFYSNPHDSLVMNTLTSFSPPLNQETAVEAPSRRTDDEIPPPLPERTPESFIVVEEAGEPSPRVTESLPLVVTFGASPECSGTSEMKSHDSVGFTPSKNVKLRSPKSDRHQDGSPPPPLPERTLESFFLADEDCIQAQAVQTSSTSYPETTENSTSSKQTLRTPGKSFTRSKSLKIFRNMKKSVCNSSSPSKPTERVQPKNSSSFLNFGFGNRFSKPKGPRNPPSAWNM

How the values were obtained:
[1] = tested on: T cell receptor (TCR) signaling; settings: cited from earlier work
[2] = tested on: LYP; settings: ref [7], [18]; cited from earlier work
[3] = tested on: PEP; settings: immunoprecipitated full-length PEP vs amino acids 1−290; ref [5]; cited from earlier work

Row | Molecule | Effect of variant on signaling ([1]; ref [7], [18]) | Phosphatase activity of variant [2] | Catalytic activity vs catalytic domain alone [3] | Inhibition of T cell receptor signaling ([1]; T cells, ref [4]-[8])
1 | B1 | gain-of-function inhibitor of signaling | increased phosphatase activity | – | –
2 | B2 | – | – | much lower than the activity of the catalytic domain alone | potently inhibit T cell receptor (TCR) signaling
